Where two headings read alike, the source gives them in different places.
Key:
[1] = target: T1, P5A-bH; test: two-hybrid library CCNG1;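 also: natural log of median RNA to DNA barcode read ratio; higher means stronger binding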
T1 chain: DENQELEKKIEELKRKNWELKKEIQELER

[2] = target: T2, P6A-bH; test: two-hybrid library CCNG1;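 also: natural log of median RNA to DNA barcode read ratio; higher means stronger binding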
T2 chain: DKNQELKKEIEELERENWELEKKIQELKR

[3] = target: T3, P3A-bH; test: two-hybrid library CCNG1;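 also: natural log of median RNA to DNA barcode read ratio; higher means stronger binding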
T3 chain: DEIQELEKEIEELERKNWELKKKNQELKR

[4] = target: T4, P9A-bH; test: two-hybrid library CCNG1;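 also: natural log of median RNA to DNA barcode read ratio; higher means stronger binding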
T4 chain: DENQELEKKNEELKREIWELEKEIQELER

[5] = target: T5, P7A-bH; test: two-hybrid library CCNG1;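 also: natural log of median RNA to DNA barcode read ratio; higher means stronger binding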
T5 chain: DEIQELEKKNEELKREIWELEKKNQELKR

[6] = target: T6, P8A-bH; test: two-hybrid library CCNG1;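 also: natural log of median RNA to DNA barcode read ratio; higher means stronger binding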
T6 chain: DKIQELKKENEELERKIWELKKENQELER

[7] = target: T7, P4A-bH; test: two-hybrid library CCNG1
T7 chain: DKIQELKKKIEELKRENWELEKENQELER

[8] = target: T8, 4H48-AA; test: two-hybrid library CCmax; details: mean of both orientations
T8 chain: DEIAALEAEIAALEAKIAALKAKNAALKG

[9] = target: T9, 4H3112-AA; test: two-hybrid library CCmax
T9 chain: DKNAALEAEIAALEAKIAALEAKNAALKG

[10] = target: T10, 4H3655-AA; test: two-hybrid library CCmax; details: mean of both orientations
T10 chain: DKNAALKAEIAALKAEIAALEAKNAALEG

[11] = target: T11, 4H3343-AA; test: two-hybrid library CCmax; details: mean of both orientations
T11 chain: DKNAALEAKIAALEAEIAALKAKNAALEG

[12] = target: T12, 4H678-AA; test: two-hybrid library CCmax; details: mean of both orientations
T12 chain: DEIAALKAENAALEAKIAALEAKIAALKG

[13] = target: T13, 4H953-AA; test: two-hybrid library CCmax; details: mean of both orientations
T13 chain: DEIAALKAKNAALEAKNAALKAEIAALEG

[14] = target: T14, 4H717-AA; test: two-hybrid library CCmax; details: mean of both orientations
T14 chain: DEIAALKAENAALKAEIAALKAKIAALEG

[15] = target: T15, 4H883-AA; test: two-hybrid library CCmax; details: mean of both orientations
T15 chain: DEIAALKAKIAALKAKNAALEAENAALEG

[16] = target: T16, 4H3782-AA; test: two-hybrid library CCmax; details: mean of both orientations
T16 chain: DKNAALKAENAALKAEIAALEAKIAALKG

[17] = target: T17, 4H780-AA; test: two-hybrid library CCmax; details: mean of both orientations
T17 chain: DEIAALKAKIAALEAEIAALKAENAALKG

[18] = target: T18, 4H454-AA; test: two-hybrid library CCmax; details: mean of both orientations
T18 chain: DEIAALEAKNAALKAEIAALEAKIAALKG

[19] = target: T19, 4H3627-AA; test: two-hybrid library CCmax; details: mean of both orientations
T19 chain: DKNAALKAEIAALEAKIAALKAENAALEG

[20] = target: T20, 4H3354-AA; test: two-hybrid library CCmax
T20 chain: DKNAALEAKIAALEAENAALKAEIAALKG

[21] = target: T21, 4H797-AA; test: two-hybrid library CCmax; details: mean of both orientations
T21 chain: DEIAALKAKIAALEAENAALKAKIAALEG

[22] = target: T22, 4H918-AA; test: two-hybrid library CCmax; details: mean of both orientations
T22 chain: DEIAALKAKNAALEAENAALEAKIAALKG

[23] = target: T23, 4H605-AA; test: two-hybrid library CCmax; details: mean of both orientations
T23 chain: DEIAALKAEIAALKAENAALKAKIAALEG

[24] = target: T24, 4H566-AA; test: two-hybrid library CCmax; details: mean of both orientations
T24 chain: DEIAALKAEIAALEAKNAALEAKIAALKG

[25] = target: T25, 4H794-AA; test: two-hybrid library CCmax; details: mean of both orientations
T25 chain: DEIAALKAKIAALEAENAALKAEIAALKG

[26] = target: T26, 4H3427-AA; test: two-hybrid library CCmax; details: mean of both orientations
T26 chain: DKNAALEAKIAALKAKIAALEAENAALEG

[27] = target: T27, 4H3855-AA; test: two-hybrid library CCmax; details: mean of both orientations
T27 chain: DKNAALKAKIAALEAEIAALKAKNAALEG

[28] = target: T28, 4H967-AA; test: two-hybrid library CCmax; details: mean of both orientations
T28 chain: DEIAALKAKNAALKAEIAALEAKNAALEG

[29] = target: T29, 4H881-AA; test: two-hybrid library CCmax; details: mean of both orientations
T29 chain: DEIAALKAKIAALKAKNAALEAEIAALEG

[30] = target: T30, 4H342-AA; test: two-hybrid library CCmax; details: mean of both orientations
T30 chain: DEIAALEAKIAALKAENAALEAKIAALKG

[31] = target: T31, 4H335-AA; test: two-hybrid library CCmax; details: mean of both orientations
T31 chain: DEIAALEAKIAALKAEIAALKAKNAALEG

[32] = target: T32, 4H3921-AA; test: two-hybrid library CCmax; details: mean of both orientations
T32 chain: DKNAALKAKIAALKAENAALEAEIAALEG

[33] = target: T33, 4H906-AA; test: two-hybrid library CCmax; details: mean of both orientations
T33 chain: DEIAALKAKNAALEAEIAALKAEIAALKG

[34] = target: T34, 4H4001-AA; test: two-hybrid library CCmax; details: mean of both orientations
T34 chain: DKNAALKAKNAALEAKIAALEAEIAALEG

[35] = target: T35, 4H429-AA; test: two-hybrid library CCmax; details: mean of both orientations
T35 chain: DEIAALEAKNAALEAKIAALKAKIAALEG

[36] = target: T36, 4H568-AA; test: two-hybrid library CCmax; details: mean of both orientations
T36 chain: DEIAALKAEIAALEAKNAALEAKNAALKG

[37] = target: T37, 4H317-AA; test: two-hybrid library CCmax; details: mean of both orientations
T37 chain: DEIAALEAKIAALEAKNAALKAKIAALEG

[38] = target: T38, 4H3844-AA; test: two-hybrid library CCmax; details: mean of both orientations
T38 chain: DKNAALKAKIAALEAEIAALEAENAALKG

[39] = target: T39, 4H993-AA; test: two-hybrid library CCmax; details: mean of both orientations
T39 chain: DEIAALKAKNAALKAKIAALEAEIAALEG

[40] = target: T40, 4H3606-AA; test: two-hybrid library CCmax; details: mean of both orientations
T40 chain: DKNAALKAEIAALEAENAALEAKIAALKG

[41] = target: T41, 4H687-AA; test: two-hybrid library CCmax; details: mean of both orientations
T41 chain: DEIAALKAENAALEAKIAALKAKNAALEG

[42] = target: T42, 4H3438-AA; test: two-hybrid library CCmax
T42 chain: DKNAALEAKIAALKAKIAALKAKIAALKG

[43] = target: T43, 4H2673-bH; test: two-hybrid library CCNG1
T43 chain: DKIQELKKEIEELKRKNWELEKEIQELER

[44] = target: T44, 4H626-bH; test: two-hybrid library CCNG1
T44 chain: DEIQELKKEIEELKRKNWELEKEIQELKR

[45] = target: T45, 4H968-bH; test: two-hybrid library CCNG1
T45 chain: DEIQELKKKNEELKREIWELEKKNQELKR

[46] = target: T46, 4H4073-bH; test: two-hybrid library CCNG1
T46 chain: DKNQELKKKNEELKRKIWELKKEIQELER

[47] = target: T47, 4H575-bH; test: two-hybrid library CCNG1
T47 chain: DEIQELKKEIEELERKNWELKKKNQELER

[48] = target: T48, 4H3112-bH; test: two-hybrid library CCNG1
T48 chain: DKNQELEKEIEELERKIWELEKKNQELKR

[49] = target: T49, 4H457-bH; test: two-hybrid library CCNG1
T49 chain: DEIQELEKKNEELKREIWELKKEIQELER

[50] = target: T50, 4H855-bH; test: two-hybrid library CCNG1
T50 chain: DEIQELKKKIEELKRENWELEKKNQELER

[51] = target: T51, O4; test: two-hybrid library CCNG1
T51 chain: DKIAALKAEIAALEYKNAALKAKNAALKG

[52] = target: T52, 4H3427-bH; test: two-hybrid library CCNG1
T52 chain: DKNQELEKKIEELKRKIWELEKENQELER

[53] = target: T53, 4H683-bH; test: two-hybrid library CCNG1
T53 chain: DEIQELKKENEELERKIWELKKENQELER

[54] = target: T54, 4H953-bH; test: two-hybrid library CCNG1
T54 chain: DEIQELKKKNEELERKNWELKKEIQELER

[55] = target: T55, 4H3926-bH; test: two-hybrid library CCNG1
T55 chain: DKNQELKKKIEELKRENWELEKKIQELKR

[56] = target: T56, 4H780-bH; test: two-hybrid library CCNG1
T56 chain: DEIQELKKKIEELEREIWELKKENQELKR

[57] = target: T57, 4H346-bH; test: two-hybrid library CCNG1
T57 chain: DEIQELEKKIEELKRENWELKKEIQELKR

[58] = target: T58, 4H1831-bH; test: two-hybrid library CCNG1
T58 chain: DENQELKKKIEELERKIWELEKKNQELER

[59] = target: T59, 4H2627-bH; test: two-hybrid library CCNG1
T59 chain: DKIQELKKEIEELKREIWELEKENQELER

[60] = target: T60, 4H2702-bH; test: two-hybrid library CCNG1
T60 chain: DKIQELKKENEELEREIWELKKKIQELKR

[61] = target: T61, 4H2586-bH; test: two-hybrid library CCNG1
T61 chain: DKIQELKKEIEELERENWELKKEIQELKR

[62] = target: T62, 4H918-bH; test: two-hybrid library CCNG1
T62 chain: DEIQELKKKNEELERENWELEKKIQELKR

[63] = target: T63, 4H754-bH; test: two-hybrid library CCNG1
T63 chain: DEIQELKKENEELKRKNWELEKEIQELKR

[64] = target: T64, 4H797-bH; test: two-hybrid library CCNG1
T64 chain: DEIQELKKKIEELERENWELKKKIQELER

[65] = target: T65, 4H3010-bH; test: two-hybrid library CCNG1
T65 chain: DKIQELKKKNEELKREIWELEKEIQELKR

B1: P3A-bH (peptide)
chain: DEIQELEKEIEELERKNWELKKKNQELKR
interaction score [1]: 0.779 | interaction score [2]: 0.553 | interaction score [3]: -0.68 | interaction score [4]: 0.465 | interaction score [5]: 0.468 | interaction score [6]: -1.03 | interaction score [7]: 1.77

B2: 4H3112-AA (peptide)
chain: DKNAALEAEIAALEAKIAALEAKNAALKG
interaction score [8]: 0.163 | interaction score [9]: -0.157 | interaction score [10]: -0.414 | interaction score [11]: -1.15 | interaction score [12]: -1.37 | interaction score [13]: -1.62 | interaction score [14]: -1.33 | interaction score [15]: 0.194 | interaction score [16]: -0.975 | interaction score [17]: -1.01 | interaction score [18]: -0.722 | interaction score [19]: 0.212 | interaction score ([20]; mean of both orientations): -1.66 | interaction score [21]: -1.25 | interaction score [22]: -1.44 | interaction score [23]: -1.38 | interaction score [24]: -1.22 | interaction score [25]: -1.51 | interaction score [26]: 2.07 | interaction score [27]: -0.622 | interaction score [28]: -1.38 | interaction score [29]: -0.621 | interaction score [30]: -0.739 | interaction score [31]: 0.64 | interaction score [32]: -1.01 | interaction score [33]: -1.29 | interaction score [34]: -1.09 | interaction score [35]: 0.94 | interaction score [36]: -0.907 | interaction score [37]: -1.3 | interaction score [38]: 0.837 | interaction score [39]: -0.58 | interaction score [40]: -0.965 | interaction score [41]: -0.855

B3: P1A-bH (peptide)
chain: DEIQELEKENEELERENWELEKEIQELER
interaction score [1]: -0.798 | interaction score [2]: -0.616 | interaction score [3]: -1.59 | interaction score [4]: -1.36 | interaction score [5]: -0.716 | interaction score [6]: -0.232 | interaction score [7]: -0.5

B4: 4H3354-AA (peptide)
chain: DKNAALEAKIAALEAENAALKAEIAALKG
interaction score [13]: -1.6 | interaction score [14]: -1.69 | interaction score [15]: -2 | interaction score [16]: -1.79 | interaction score [20]: 2.03 | interaction score [21]: -0.991 | interaction score [22]: -1.56 | interaction score [26]: -1.79 | interaction score [27]: -1.85 | interaction score [28]: -1.42 | interaction score [34]: -1.64 | interaction score [42]: -0.709 | interaction score [36]: -1.54 | interaction score [41]: -1.69

B5: 4H1831-bH (peptide)
chain: DENQELKKKIEELERKIWELEKKNQELER
interaction score [43]: 0.349 | interaction score [44]: 1.02 | interaction score [45]: -2.37 | interaction score [46]: -0.216 | interaction score [47]: -1.81 | interaction score [48]: -0.582 | interaction score [49]: 0.724 | interaction score [50]: -0.184 | interaction score [51]: -1.48 | interaction score [52]: 0.584 | interaction score [53]: -0.934 | interaction score [54]: -0.749 | interaction score [55]: -0.549 | interaction score [56]: 0.511 | interaction score [57]: 0.11 | interaction score [58]: -0.611 | interaction score [59]: 1.87 | interaction score [60]: 0.297 | interaction score [61]: -1.54 | interaction score [62]: -0.221 | interaction score [63]: 0.0674 | interaction score [64]: -1.12 | interaction score [65]: 1.32

— publication PMC10397247
